Data set [1] addresses T1, BMP10 (Homo sapiens, UniProt O95393).
T1 sequence (O95393 317-424): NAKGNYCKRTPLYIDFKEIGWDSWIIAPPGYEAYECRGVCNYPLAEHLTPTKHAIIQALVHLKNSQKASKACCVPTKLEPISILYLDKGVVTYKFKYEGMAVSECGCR
Kind of data set: Biacore ligand binding profile, ActRIIA-Fc:ALK4-Fc heterodimer vs homodimers, anti-Fc capture (Example 17, Table 14). How it is done: (§1) A Biacore™-based binding assay was used to compare ligand binding selectivity of the ActRIIA-Fc:ALK4-Fc heterodimeric complex described above with that of ActRIIA-Fc and ALK4-Fc homodimeric complexes. The ActRIIA-Fc:ALK4-Fc heterodimer, ActRIIA-Fc homodimer, and ALK4-Fc homodimer were independently captured onto the system using an anti-Fc antibody. Ligands were injected and allowed to flow over the captured receptor protein. Results are summarized in Table 14 below, in which ligand off-rates (kd) most indicative of effective ligand traps are denoted in bold.
(Surface plasmon resonance follows binding to a sensor surface in real time, without labels.)

Data set [2] has as its target T2, BMP6 (Homo sapiens, UniProt P22004).
T2 sequence (P22004 375-513): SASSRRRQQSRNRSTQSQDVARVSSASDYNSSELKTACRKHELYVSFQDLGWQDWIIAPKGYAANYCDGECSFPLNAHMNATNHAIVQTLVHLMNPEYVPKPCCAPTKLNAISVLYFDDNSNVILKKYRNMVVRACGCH
The description is as above. As to conditions: ligand BMP6, Table 14. How it is done:
as §1

The target in data set [3] is T3, BMP7 (Homo sapiens, UniProt P18075).
T3 sequence (P18075 293-431): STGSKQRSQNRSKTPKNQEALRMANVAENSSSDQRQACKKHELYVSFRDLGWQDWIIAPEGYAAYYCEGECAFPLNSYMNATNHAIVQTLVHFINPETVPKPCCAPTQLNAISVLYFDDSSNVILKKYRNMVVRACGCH
The data set is described as above. As to conditions: ligand BMP7, Table 14. How it is done: as §1

For data set [4], the target named is T4, BMP9 (Homo sapiens, UniProt Q9UK05).
T4 sequence (Q9UK05 320-429): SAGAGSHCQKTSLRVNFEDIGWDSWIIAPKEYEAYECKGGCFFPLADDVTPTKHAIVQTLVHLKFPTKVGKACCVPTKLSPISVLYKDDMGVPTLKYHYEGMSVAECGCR
Described as above. As to conditions: ligand BMP9, Table 14. How it is done:
as §1

In data set [5] the target is T5, GDF11 (Homo sapiens, UniProt O95390).
T5 sequence (O95390 299-407): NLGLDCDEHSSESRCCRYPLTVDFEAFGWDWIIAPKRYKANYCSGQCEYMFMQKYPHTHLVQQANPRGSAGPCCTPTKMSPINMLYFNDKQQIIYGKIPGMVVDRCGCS
The description is as above. As to conditions: for ka / kd: ligand GDF11, Table 14. How it is done:
as §1

Data set [6] deals with T6, GDF3 (Homo sapiens, UniProt Q9NR23).
T6 sequence (Q9NR23 251-364): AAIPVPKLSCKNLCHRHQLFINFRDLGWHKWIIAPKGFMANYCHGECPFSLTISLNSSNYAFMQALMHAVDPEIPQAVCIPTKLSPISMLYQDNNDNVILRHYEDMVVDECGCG
The data set is described as above. As to conditions: ligand GDF3, Table 14. How it is done: as §1

Data set [7] has as its target T7, GDF8 (Homo sapiens, UniProt O14793).
T7 sequence (O14793 267-375): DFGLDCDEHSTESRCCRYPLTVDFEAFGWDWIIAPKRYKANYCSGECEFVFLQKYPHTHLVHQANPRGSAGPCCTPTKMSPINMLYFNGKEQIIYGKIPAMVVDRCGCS
Described as above. As to conditions: ligand GDF8, Table 14. How it is done: as §1

Data set [8] concerns the target T8, activin A (Homo sapiens, UniProt P08476).
T8 sequence (P08476 311-426): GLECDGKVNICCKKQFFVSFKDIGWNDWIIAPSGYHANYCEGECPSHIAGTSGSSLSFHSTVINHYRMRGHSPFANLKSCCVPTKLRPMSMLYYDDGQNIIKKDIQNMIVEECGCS
The data set is described as above. As to conditions: for ka / kd: ligand Activin A, Table 14. How it is done: as §1

Data set [9] concerns the target T9, activin AB (Homo sapiens, UniProt P08476+P09529).
T9 sequence (P08476 311-426): T8 sequence (P08476 311-426)
T9 sequence (P09529 293-407): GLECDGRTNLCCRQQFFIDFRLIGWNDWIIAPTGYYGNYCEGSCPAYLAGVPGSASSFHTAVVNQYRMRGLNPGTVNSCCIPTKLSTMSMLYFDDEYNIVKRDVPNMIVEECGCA
Described as above. As to conditions: for ka / kd: ligand Activin AB, Table 14. How it is done: as §1

The target of data set [10] is T10, activin AC (Homo sapiens, UniProt P08476+P55103).
T10 sequence (P08476 311-426): T8 sequence (P08476 311-426)
T10 sequence (P55103 237-352): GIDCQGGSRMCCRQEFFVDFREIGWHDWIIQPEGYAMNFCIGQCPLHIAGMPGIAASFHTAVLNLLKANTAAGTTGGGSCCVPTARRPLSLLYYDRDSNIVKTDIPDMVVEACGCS
The data set is described as above. As to conditions: for ka / kd: ligand Activin AC, Table 14. How it is done: as §1

For data set [11], the target named is T11, activin B (Homo sapiens, UniProt P09529).
T11 sequence (P09529 293-407): T9 sequence (P09529 293-407)
Described as above. As to conditions: for activin B binding: Example 17; for ka / kd: ligand Activin B, Table 14. How it is done:
as §1

In data set [12] the target is T11, activin B. The data set can be described thus: Similar Biacore binding assay (Example 1).
In data set [13] the target is T7, GDF8. Kind of data set: Similar Biacore binding assay (Example 1).
For data set [14], the target named is T2, BMP6. Kind of data set: Similar Biacore binding assay (Example 1).
Data set [15] concerns the target T1, BMP10. Kind of data set: Similar Biacore binding assay (Example 1).
Data set [16] in a line: Pharmacokinetic studies in rats. The format is in vivo. How it is done: The ActRIIA-hFc was very stable in pharmacokinetic studies. Rats were dosed with 1 mg/kg, 3 mg/kg, or 10 mg/kg of ActRIIA-hFc protein, and plasma levels of the protein were measured at 24, 48, 72, 144 and 168 hours. In a separate study, rats were dosed at 1 mg/kg, 10 mg/kg, or 30 mg/kg.
Data set [17] can be described thus: Pharmacokinetics in cynomolgus monkeys. It is filed as in vivo.
Setting [18] is: initial administration of 1 mg/kg.
The mark [19] stands for this setting: initial administration of 10 mg/kg.

As for “ActRIIA-Fc homodimer: ActRIIA-Fc homodimeric complex used as comparator in Example 17”, the ka in [1] (ligand BMP10, Table 14) is 2.9e+07 M⁻¹ s⁻¹; in data set [2], 2.7e+08 M⁻¹ s⁻¹; in data set [3], 8.9e+06 M⁻¹ s⁻¹; in data set [5] it was 7.3e+07 M⁻¹ s⁻¹; in data set [6] it was 1.5e+06 M⁻¹ s⁻¹; in data set [7], 1.4e+06 M⁻¹ s⁻¹. For the same substance, the ka stood at 1.4e+07 M⁻¹ s⁻¹ in data set [8], 2.8e+07 M⁻¹ s⁻¹ in data set [9], 2.2e+07 M⁻¹ s⁻¹ in data set [10] and 1.1e+07 M⁻¹ s⁻¹ in data set [11]. The kd is 0.0025 s⁻¹ in [1] (ligand BMP10, Table 14); 0.022 s⁻¹ in data set [2]; 0.033 s⁻¹ in [3]; “Transient*” in data set [4]; 0.00092 s⁻¹ in [5]; 0.0036 s⁻¹ in data set [6]. For the same substance, the kd in data set [7] was 0.0014 s⁻¹; in data set [8], 0.00062 s⁻¹; in [9], 0.00026 s⁻¹; in [10], 0.0079 s⁻¹; in [11] it was 0.00011 s⁻¹. In addition, the “activin B binding” value in data set [11] is “highest affinity”.
For “ActRIIA-Fc:ALK4-Fc heterodimer: soluble heteromeric complex of extracellular domains of human ActRIIA and human ALK4, each separately fused to an Fc domain with a linker”, the “BMP10 binding” value in data set [1] (Example 17) was “markedly reduced binding”. Also, the kd result was “Transient*” in [1] (ligand BMP10, Table 14); 0.012 s⁻¹ in data set [2]; 0.072 s⁻¹ in [3]; 0.00065 s⁻¹ in data set [5]; 0.0048 s⁻¹ in data set [6]; 0.0028 s⁻¹ in data set [7]. The kd in data set [8] came to 0.00024 s⁻¹; in data set [9], 0.00023 s⁻¹; in data set [10] it was 0.00054 s⁻¹; in data set [11], 0.00048 s⁻¹. Besides, the ka amounted to 5.4e+06 M⁻¹ s⁻¹ in [2]; 2e+07 M⁻¹ s⁻¹ in data set [3]; 3e+07 M⁻¹ s⁻¹ in data set [5]; 4.9e+07 M⁻¹ s⁻¹ in [6]; 1.8e+07 M⁻¹ s⁻¹ in data set [7]; 7.4e+06 M⁻¹ s⁻¹ in data set [8]. The ka amounted to 1.8e+07 M⁻¹ s⁻¹ in [9], 3.2e+06 M⁻¹ s⁻¹ in data set [10] and 9.5e+06 M⁻¹ s⁻¹ in data set [11]. Also, in data set [4], the KD entry is “No binding”. Also, the “GDF11 binding” value in data set [5] (Example 17) was “strong binding”. In addition, in data set [8] (Example 17), the “activin A binding” value is recorded as “enhanced binding”. Also, the “activin AB binding” value in data set [9] (Example 17) is reported as “strong binding”. Also, the “activin AC binding” value in data set [10] (Example 17) was “particularly enhanced binding”. The “activin B binding” value in [11] was “reduced affinity (albeit still within the high-affinity range)”.
As for “ActRIIA-hFc: extracellular domain of human ActRIIa fused to a human Fc domain with a minimal linker; homodimer”, the “affinity for activin B” value in [12] was “high to moderate affinity”. For the same substance, the “affinity for GDF8” value in [13] was “high to moderate affinity”. For the same substance, the “affinity for BMP6” value in data set [14] is “high to moderate affinity”. The “affinity for BMP10” value in data set [15] is on record as “high to moderate affinity”. The same substance came in with a serum half-life in [16] of 11 to 14 days. Further, the entries for the “circulating levels of the drug after two weeks” value in data set [16] (setting [18]) and in data set [16] (setting [19]) were 11 µg/mL and 110 µg/mL, respectively. In addition, the plasma half-life result in data set [17] is on record as “greater than 14 days”. Besides, the “circulating levels of the drug” value in data set [17] (setting [18]) amounted to 25 µg/mL; in data set [17] (setting [19]), 304 µg/mL; in data set [17] (initial administration of 30 mg/kg) it was 1440 µg/mL.

The values are drawn from patent US20230129812A1, “COMPOSITIONS AND METHODS FOR TREATING PULMONARY HYPERTENSION” (Acceleron Pharma Inc., priority 2020, published 2023).
